Experimental data published in article PMC12416549 (2024).

T1: TNFR1 (Homo sapiens, UniProt P19438)
T1 chain: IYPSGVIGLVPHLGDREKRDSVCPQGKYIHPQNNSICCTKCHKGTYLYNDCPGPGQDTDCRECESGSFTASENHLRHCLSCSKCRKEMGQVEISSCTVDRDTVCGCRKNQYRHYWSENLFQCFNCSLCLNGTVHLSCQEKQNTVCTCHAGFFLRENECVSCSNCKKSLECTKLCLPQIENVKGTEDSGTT


Target: T1, TNFR1
Assay: yeast display SC50

apparent Kd (screen) | Binder
0.446 nM | L40K (designed binder) SMEEEVEKAAKEYEKKKKEAIEKHLEKLKAKDKEAAERFKKELEEAAKEYAKDEAKTMSEEEAKRRAKKYKEKVLLSELSEEEQKEIKEAEEKLVRTILKYVEEAAK
1.69 nM | E86I (designed binder) SMEEEVEKAAKEYEKKKKEAIEKHLEKLKAKDKEAAERFLKELEEAAKEYAKDEAKTMSEEEAKRRAKKYKEKVLLSELSEEEQKIIKEAEEKLVRTILKYVEEAAK
1.86 nM | L28R (designed binder) SMEEEVEKAAKEYEKKKKEAIEKHLEKRKAKDKEAAERFLKELEEAAKEYAKDEAKTMSEEEAKRRAKKYKEKVLLSELSEEEQKEIKEAEEKLVRTILKYVEEAAK
0.539 nM | K23I (designed binder) SMEEEVEKAAKEYEKKKKEAIEIHLEKLKAKDKEAAERFLKELEEAAKEYAKDEAKTMSEEEAKRRAKKYKEKVLLSELSEEEQKEIKEAEEKLVRTILKYVEEAAK
1.16 nM | A20E (designed binder) SMEEEVEKAAKEYEKKKKEEIEKHLEKLKAKDKEAAERFLKELEEAAKEYAKDEAKTMSEEEAKRRAKKYKEKVLLSELSEEEQKEIKEAEEKLVRTILKYVEEAAK
4.83 nM | I98K (designed binder) SMEEEVEKAAKEYEKKKKEAIEKHLEKLKAKDKEAAERFLKELEEAAKEYAKDEAKTMSEEEAKRRAKKYKEKVLLSELSEEEQKEIKEAEEKLVRTKLKYVEEAAK
0.49 nM | E22D (designed binder) SMEEEVEKAAKEYEKKKKEAIDKHLEKLKAKDKEAAERFLKELEEAAKEYAKDEAKTMSEEEAKRRAKKYKEKVLLSELSEEEQKEIKEAEEKLVRTILKYVEEAAK
1.4 nM | L25C (designed binder) SMEEEVEKAAKEYEKKKKEAIEKHCEKLKAKDKEAAERFLKELEEAAKEYAKDEAKTMSEEEAKRRAKKYKEKVLLSELSEEEQKEIKEAEEKLVRTILKYVEEAAK
1.27 nM | E7N (designed binder) SMEEEVNKAAKEYEKKKKEAIEKHLEKLKAKDKEAAERFLKELEEAAKEYAKDEAKTMSEEEAKRRAKKYKEKVLLSELSEEEQKEIKEAEEKLVRTILKYVEEAAK
1.05 nM | K16T (designed binder) SMEEEVEKAAKEYEKTKKEAIEKHLEKLKAKDKEAAERFLKELEEAAKEYAKDEAKTMSEEEAKRRAKKYKEKVLLSELSEEEQKEIKEAEEKLVRTILKYVEEAAK
2.05 nM | E45G (designed binder) SMEEEVEKAAKEYEKKKKEAIEKHLEKLKAKDKEAAERFLKELEGAAKEYAKDEAKTMSEEEAKRRAKKYKEKVLLSELSEEEQKEIKEAEEKLVRTILKYVEEAAK
4.39 nM | K52P (designed binder) SMEEEVEKAAKEYEKKKKEAIEKHLEKLKAKDKEAAERFLKELEEAAKEYAPDEAKTMSEEEAKRRAKKYKEKVLLSELSEEEQKEIKEAEEKLVRTILKYVEEAAK
2.48 nM | K71F (designed binder) SMEEEVEKAAKEYEKKKKEAIEKHLEKLKAKDKEAAERFLKELEEAAKEYAKDEAKTMSEEEAKRRAKKYFEKVLLSELSEEEQKEIKEAEEKLVRTILKYVEEAAK
0.869 nM | L75N (designed binder) SMEEEVEKAAKEYEKKKKEAIEKHLEKLKAKDKEAAERFLKELEEAAKEYAKDEAKTMSEEEAKRRAKKYKEKVNLSELSEEEQKEIKEAEEKLVRTILKYVEEAAK
0.539 nM | K100Q (designed binder) SMEEEVEKAAKEYEKKKKEAIEKHLEKLKAKDKEAAERFLKELEEAAKEYAKDEAKTMSEEEAKRRAKKYKEKVLLSELSEEEQKEIKEAEEKLVRTILQYVEEAAK
0.718 nM | K41Q (designed binder) SMEEEVEKAAKEYEKKKKEAIEKHLEKLKAKDKEAAERFLQELEEAAKEYAKDEAKTMSEEEAKRRAKKYKEKVLLSELSEEEQKEIKEAEEKLVRTILKYVEEAAK

Second part, the binder before the results:

Binder | apparent Kd (screen)
L75A (designed binder) SMEEEVEKAAKEYEKKKKEAIEKHLEKLKAKDKEAAERFLKELEEAAKEYAKDEAKTMSEEEAKRRAKKYKEKVALSELSEEEQKEIKEAEEKLVRTILKYVEEAAK | 0.405 nM
R66S (designed binder) SMEEEVEKAAKEYEKKKKEAIEKHLEKLKAKDKEAAERFLKELEEAAKEYAKDEAKTMSEEEAKRSAKKYKEKVLLSELSEEEQKEIKEAEEKLVRTILKYVEEAAK | 7.07 nM
E60C (designed binder) SMEEEVEKAAKEYEKKKKEAIEKHLEKLKAKDKEAAERFLKELEEAAKEYAKDEAKTMSCEEAKRRAKKYKEKVLLSELSEEEQKEIKEAEEKLVRTILKYVEEAAK | 1.05 nM
E14P (designed binder) SMEEEVEKAAKEYPKKKKEAIEKHLEKLKAKDKEAAERFLKELEEAAKEYAKDEAKTMSEEEAKRRAKKYKEKVLLSELSEEEQKEIKEAEEKLVRTILKYVEEAAK | 11.4 nM
I87A (designed binder) SMEEEVEKAAKEYEKKKKEAIEKHLEKLKAKDKEAAERFLKELEEAAKEYAKDEAKTMSEEEAKRRAKKYKEKVLLSELSEEEQKEAKEAEEKLVRTILKYVEEAAK | 13.8 nM
E82N (designed binder) SMEEEVEKAAKEYEKKKKEAIEKHLEKLKAKDKEAAERFLKELEEAAKEYAKDEAKTMSEEEAKRRAKKYKEKVLLSELSENEQKEIKEAEEKLVRTILKYVEEAAK | 1.86 nM
E14K (designed binder) SMEEEVEKAAKEYKKKKKEAIEKHLEKLKAKDKEAAERFLKELEEAAKEYAKDEAKTMSEEEAKRRAKKYKEKVLLSELSEEEQKEIKEAEEKLVRTILKYVEEAAK | 3 nM
A63S (designed binder) SMEEEVEKAAKEYEKKKKEAIEKHLEKLKAKDKEAAERFLKELEEAAKEYAKDEAKTMSEEESKRRAKKYKEKVLLSELSEEEQKEIKEAEEKLVRTILKYVEEAAK | 3.99 nM
E103G (designed binder) SMEEEVEKAAKEYEKKKKEAIEKHLEKLKAKDKEAAERFLKELEEAAKEYAKDEAKTMSEEEAKRRAKKYKEKVLLSELSEEEQKEIKEAEEKLVRTILKYVGEAAK | 0.539 nM
T97G (designed binder) SMEEEVEKAAKEYEKKKKEAIEKHLEKLKAKDKEAAERFLKELEEAAKEYAKDEAKTMSEEEAKRRAKKYKEKVLLSELSEEEQKEIKEAEEKLVRGILKYVEEAAK | 1.86 nM
K100P (designed binder) SMEEEVEKAAKEYEKKKKEAIEKHLEKLKAKDKEAAERFLKELEEAAKEYAKDEAKTMSEEEAKRRAKKYKEKVLLSELSEEEQKEIKEAEEKLVRTILPYVEEAAK | 3 nM
K107T (designed binder) SMEEEVEKAAKEYEKKKKEAIEKHLEKLKAKDKEAAERFLKELEEAAKEYAKDEAKTMSEEEAKRRAKKYKEKVLLSELSEEEQKEIKEAEEKLVRTILKYVEEAAT | 0.869 nM
E78F (designed binder) SMEEEVEKAAKEYEKKKKEAIEKHLEKLKAKDKEAAERFLKELEEAAKEYAKDEAKTMSEEEAKRRAKKYKEKVLLSFLSEEEQKEIKEAEEKLVRTILKYVEEAAK | 0.49 nM
K16R (designed binder) SMEEEVEKAAKEYEKRKKEAIEKHLEKLKAKDKEAAERFLKELEEAAKEYAKDEAKTMSEEEAKRRAKKYKEKVLLSELSEEEQKEIKEAEEKLVRTILKYVEEAAK | 1.4 nM
E19F (designed binder) SMEEEVEKAAKEYEKKKKFAIEKHLEKLKAKDKEAAERFLKELEEAAKEYAKDEAKTMSEEEAKRRAKKYKEKVLLSELSEEEQKEIKEAEEKLVRTILKYVEEAAK | 0.446 nM
K11H (designed binder) SMEEEVEKAAHEYEKKKKEAIEKHLEKLKAKDKEAAERFLKELEEAAKEYAKDEAKTMSEEEAKRRAKKYKEKVLLSELSEEEQKEIKEAEEKLVRTILKYVEEAAK | 0.956 nM
E54N (designed binder) SMEEEVEKAAKEYEKKKKEAIEKHLEKLKAKDKEAAERFLKELEEAAKEYAKDNAKTMSEEEAKRRAKKYKEKVLLSELSEEEQKEIKEAEEKLVRTILKYVEEAAK | 12.5 nM
D32V (designed binder) SMEEEVEKAAKEYEKKKKEAIEKHLEKLKAKVKEAAERFLKELEEAAKEYAKDEAKTMSEEEAKRRAKKYKEKVLLSELSEEEQKEIKEAEEKLVRTILKYVEEAAK | 7.07 nM
E4S (designed binder) SMESEVEKAAKEYEKKKKEAIEKHLEKLKAKDKEAAERFLKELEEAAKEYAKDEAKTMSEEEAKRRAKKYKEKVLLSELSEEEQKEIKEAEEKLVRTILKYVEEAAK | 0.539 nM
